The series in a line: amyloid nucleation score (Sup35N fusion, yeast selection) (log enrichment); library NNK1; higher = more nucleation; inactive = no reads after selection. Summed up: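 Nucleation score is defined as the DiMSum log enrichment of output over input reads, with centring on the mode score of non-aggregating sequences. A minimum of 100 input reads was required for each sequence. Reads came from Illumina sequencing of plasmid inserts from psi-negative yeast expressing Sup35N fused to peptides of 20 random codons, induced with 100 μM copper sulfate for 24 hours and grown 7 days at 30°C on medium lacking adenine and uracil.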

± gives the uncertainty stated by the source.

For the substance TGICLWLPAVVDAEES, the amyloid nucleation score was -0.34 ± 0.35.
The value for SFWWSDATMFEFVKGSRSGK was “inactive”; that for HRCRREYSQSSGSWDESIEN was 1.05 ± 0.14; that for SFCLAVGPNLMTIGICMLQQ was “inactive”.
The substance KANFFTLRSMFWGPMN showed an amyloid nucleation score of 1.15 ± 0.64.
For KMSNCWLF, the amyloid nucleation score was -0.881 ± 0.55.
AAALRIIGHYMRALLTELLQ came in with an amyloid nucleation score of 0.687 ± 0.46.
Substance ISPVGIIMYQCSAWLTRFRS displayed an amyloid nucleation score of 0.204 ± 0.43.
On to LKTEPHIRLSPLETRPV, for which the amyloid nucleation score worked out at 0.552 ± 0.77.
The value for MLGSGAANTCHLTTRAWDHR was 0.183 ± 0.39.
RLFVVEELESWGCFNWASIM displayed an amyloid nucleation score of -1.7 ± 2.4.
As for RVRAVCVLFRTNAAFPAGTH, the amyloid nucleation score was -1.03 ± 0.74.
The value for NPRISCFVLQIRSAALSQSV was -0.007 ± 0.92; that for FRSFGVR was 0.924 ± 0.97.
The value for RRNVWASVTGGELWKGDLSR was -0.498 ± 1.1.
On to KRSANVYRLRCLGGKMLHVN, for which the amyloid nucleation score stood at 3.34 ± 0.081.
The value for QLSYLTFFCFVP was 7.183 ± 0.052; that for TSPPSKIAVRCGWDSMSLR was 0.309 ± 0.6; that for LRWLSRKILLTVRASN was -0.125 ± 0.33.
Regarding YIRGYTIFSNWCFGLASGSA, the amyloid nucleation score was -0.525 ± 0.83.
The value for CFGRRRVRIELGTAWPFSVL was -0.754 ± 1.1; that for AMDMSADAGDSWNCGCQYSN was “inactive”; that for HYVRNPARD was “inactive”.
The value for FYDPALMSITNSD was 1.73 ± 0.15; that for DIDFLLNLCESNLIFANM was -0.887 ± 0.87.
The value for ESLFPVCGEMTVTCPLSPTE was 0.423 ± 1.4.
As to PTCLSWGGVMRRDL, the amyloid nucleation score was determined as 0.341 ± 0.48.
The value for RICPKNCMSISVI was 0.305 ± 0.29; that for WYRLFALIGLAYLH was 0.586 ± 0.56; that for LSTNDTSR was -0.028 ± 0.53.
On to VNVLRTII, for which the amyloid nucleation score was determined as 0.255 ± 0.27.
The value for SRFDMLSRALRCMK was 1.35 ± 0.34.
For the substance FCYYKCNESGP, the amyloid nucleation score was -0.751 ± 0.71.
The value for TCCDRSRCSESSEGRRFQRT was 0.162 ± 0.3.
The value for ATYSLIFEPWPGPRLVPMQG was -0.12 ± 0.62.
LMHKDISERDRSCLWL displayed an amyloid nucleation score of 0.033 ± 0.5.
The value for IKKEIRSVFGLSGTSVKGNN was -0.118 ± 0.74; that for SECSINRWF was 0.965 ± 0.76; that for ISIPYICIMVFFFDAVRVDQ was 0.49 ± 0.34.
The value for TNGWTQHKYKYRSFSGHFII was “inactive”; that for SSGFTLTSVRMGEMSTANNG was 1.1 ± 0.66.
The value for RYSSPSRGTAMFSLLYLYVY was 0.694 ± 0.97; that for AQKCPALYRLMNMPEKEKVG was 0.18 ± 0.43.
KKYLVNNYFLGFR came in with an amyloid nucleation score of 0.127 ± 0.25.
The value for VVGFYEWGQSREISSLRGGC was 0.382 ± 0.58; that for YEVIHICTNLEPIVRNCMGG was 7.024 ± 0.066; that for DSGDEGVIVSVSHGWTSEGL was 0.443 ± 0.81.
As to REDWSTLEPYPHYDTAIGRS, the amyloid nucleation score was found to be 1.24 ± 0.8.
Regarding IINMMLSHRDNWLFYMSFVG, the amyloid nucleation score is -0.308 ± 0.42.
Take NRYIRELGRKTYVLRKEFRG: the amyloid nucleation score is -0.274 ± 1.2.
MFFVSI: the amyloid nucleation score stood at 0.41 ± 0.22.
The substance RGGKGPRFVYNRFISRAAGR registered an amyloid nucleation score of -0.869 ± 0.74.
The value for TVAGVR was 0.174 ± 0.4; that for NFPFMFKCSPGNVHLVDIR was -0.535 ± 1.7; that for ILSSFILVANCWILFHPLFW was -0.411 ± 0.52.
Consider CNRPGF, for which the amyloid nucleation score was -0.249 ± 0.44.
The value for CIDDFSNFVRNVGAFGEYSF was -0.752 ± 0.53.
The substance ESQLVTAYEH displayed an amyloid nucleation score of 0.324 ± 1.1.
NMDGLAPISGSFYSRSGNFI showed an amyloid nucleation score of 0.964 ± 0.61.
Take PSSIWNAMFYGYNCMYLLKT: the amyloid nucleation score was -0.392 ± 0.34.
The value for AWKKFSWDRLSKP was 5.16 ± 0.072; that for SSEDAVRLLLIVIFFLTFKF was 0.778 ± 0.49; that for CCWNNSLS was “inactive”.
MPGNQYCSVSYLYQRSSGTV gave an amyloid nucleation score of 0.384 ± 0.45.
The value for GSKTRAKLSLGCPKFLDAKG was 0.457 ± 0.73.
The value for DSYSLSN was -0.179 ± 0.27; that for ICLITVSMYKSRWIFSKKLT was -0.073 ± 0.54; that for TFVCAFRGY was 2.19 ± 0.098.
SIRTVSLLR registered an amyloid nucleation score of -0.859 ± 0.42.
The value for DIERMKVPELFCLLSLDTGP was -0.376 ± 1.7; that for LRFVTINRRSVSVYSSNTKS was “inactive”.
The value for SIGYMNLDRVI was -0.944 ± 0.39; that for CFCKGGPVVTRMWEGIYPC was -0.014 ± 0.27; that for YYGFWICFNYVGTGVKISCA was 3.38 ± 0.075.
The value for SLYTKLAVPLGKWRIGYRLT was 0.46 ± 0.58.
Regarding RWLHVIKL, the amyloid nucleation score came out at 2.21 ± 0.35.
For the substance VGNRRYNTSVMALSNQRNTR, the amyloid nucleation score turned out to be 0.636 ± 1.
Turning to CVFRSYWVCLWSDNNGDVR, the amyloid nucleation score is 8.325 ± 0.07.
Turning to RWSILTIVSMGP, the amyloid nucleation score was 0.196 ± 1.2.
The value for QAVGSI was 0.031 ± 0.33; that for TLVKLVVTIGLDIKDCGFVI was 0.018 ± 0.18; that for QHRVCLHCYKM was -1.63 ± 2.7.
The value for CRSSHE was 0.109 ± 1.4; that for GELTIYCSVVPYVVSR was 0.415 ± 0.44; that for TQCCGS was -0.448 ± 1.7.
The value for KEWFYYLVDELCGGLCNPVR was 0.39 ± 1.2; that for MKYKSWTSGSGSSVSRRMKL was 0.028 ± 0.72; that for IVMQVLTQTVMWIFYLNGSH was -0.254 ± 0.42.
As to SQCQFVMVDRNGYGTKLRNY, the amyloid nucleation score was -0.24 ± 0.36.
As for VMLSSSGYELHVWRVGGSDG, the amyloid nucleation score worked out at 0.093 ± 0.75.
Regarding FCCMGDMYFCSDFQSVSLFL, the amyloid nucleation score worked out at 8.454 ± 0.065.
The value for FTVARYKGIYNFSQGRCA was -0.33 ± 1.2; that for WLGRYQLLWLALGWIITRRG was 1.51 ± 0.47; that for AVYFSSFR was 0.522 ± 0.33.
Regarding LFTKNSIGGVFPCPPETARY, the amyloid nucleation score was -1.18 ± 2.4.
The value for SFSVSLTTYVYYFICHYAGI was 1.96 ± 0.13; that for VVADVAPR was -0.14 ± 0.34.
Regarding VGEALYHESSGTVNLEILCS, the amyloid nucleation score entry is “inactive”.
The value for HSIVDSRLSCICILSS was 4.16 ± 0.16; that for GLLFVKGTVDRQAWSGFEAH was -0.796 ± 1.2.
The value for CYDQKILLLLISVTYVRTSD was -0.34 ± 1; that for TASIWNSRFFHNAGSLSGPF was -0.3 ± 1.1; that for KVPDALFVDRLLYQVISCIH was 3.47 ± 0.084.
In the case of VSPRFGLSSMGNYQKVLVYI, the amyloid nucleation score is -0.651 ± 1.7.
In turn, IETSKFRPINVKLVIYCCHG had an amyloid nucleation score of 0.499 ± 0.79.
The substance ASTYMYGFSYIYMLVNRCEC came in with an amyloid nucleation score of 1.59 ± 0.14.
The value for STRMVYR was -0.261 ± 0.95; that for FNCRVNFFDSVGY was 3.28 ± 0.16; that for LVLSSPRHDMSCSYAHFNMN was 1.38 ± 0.43.
In turn, AFFYVVCFDVCKMSTMYLFG yielded an amyloid nucleation score of -2.44 ± 2.4.
The value for LPKMWYIDLFVSGVY was 0.241 ± 0.48; that for QLTSVSIFWYPF was -1.46 ± 2.4.
Substance LKNSVSFMADGS gave an amyloid nucleation score of -0.327 ± 0.38.
On to LMLPMESAPKRLGEGVGPSR, for which the amyloid nucleation score came to 0.233 ± 0.47.
The value for LYGSVKNIKRLPHCFMLCLC was 0.616 ± 0.36; that for WHTRDYLKRRL was 0.906 ± 0.75.
The value for NFLIANRSLDAVLMVQLPFV was -0.344 ± 0.98; that for PRTNSNMIKCYIFDNAWNQL was 6.234 ± 0.055; that for SSIGVVKGCIVLWLSMWNQR was 4.32 ± 0.066.
The value for SGEVLRPFAVLC was -0.061 ± 0.3; that for FSSIIG was -0.528 ± 0.4; that for HVYMGYICCHAETDACMGCR was 4.57 ± 0.14.
Regarding GLHREATSYLNRLFRINSG, the amyloid nucleation score was -0.48 ± 0.56.
As for TFTFNACELCVPGLMCKEWN, the amyloid nucleation score is 3.94 ± 0.096.
The value for FSTVILSAYSAFSFGIYLLS was 1.46 ± 0.33; that for DGFMCFLYKLASQT was 0.158 ± 0.78.
The value for CLNWVCRRFWVSITHFWAWV was 0.066 ± 0.51; that for MSSFRGDLEFAYDYS was -0.582 ± 1.2; that for VYFGDLLLKTSYL was -0.747 ± 1.1.
The value for STWFSFTFLWLMSRGVNQNF was 1.56 ± 0.36; that for CRSVCGRIS was 0.177 ± 0.77; that for WRLFIWDRGSLWFEISYYFR was -0.164 ± 0.3.
Turning to PTTYNYSCVGIVSFDFSESI, the amyloid nucleation score is 5.293 ± 0.052.
The value for QFKKVGPPLVKNLAQVRMRM was -0.033 ± 0.47.
The value for VVLNIR was -0.232 ± 0.52.
Turning to YYLIFHFDYHLVIYLW, the amyloid nucleation score was 0.707 ± 0.41.
The value for FSHLFHQY was 2.13 ± 0.57; that for LKSDMIADTTAL was 2.67 ± 0.12.
ALWNLCCHLGDGTAADSTVY displayed an amyloid nucleation score of -0.46 ± 1.9.
In turn, LHGPN displayed an amyloid nucleation score of 0.705 ± 0.71.
In turn, IIDPDREYTVSN displayed an amyloid nucleation score of -0.236 ± 0.95.

For the origin of these results see the supplement of paper PMC12042874.
